Results as given in PMC5736629, “Allosteric modulation of protein-protein interactions by individual lipid binding events” (Nature Communications, 2017).
Blank lines part the entries; values can stand above or below the binder they belong to.

Experiments:
Settings in all cases: both partners purified
[1] = target: T1, ammonium channel (AmtB) from Escherichia coli (Escherichia coli, UniProt P69681 23-428); assay: native MS; AmtB-GlnK at 2 uM titrated with SOPE (18:0-18:1, cis); 200 mM ammonium acetate pH 7.4, 0.5% C8E4, 50 uM ADP; global fit of the equilibrium-coupled AmtB-GlnK-lipid binding model; apparent constants
T1 construct: Ammonium channel AmtB, Escherichia coli, wild-type; Expressed as pelB signal peptide - 10x His - MBP - TEV site - AmtB from pET15b; tagless after TEV cleavage; also called ammonia channel; AmtB wild-type; source: E. coli C41(DE3), purified (membranes extracted with octyl glucoside, HisTrap, TEV cleavage, reverse HisTrap); for native MS co-purified with stGlnK (StrepTrap, Superdex 200 Increase); …
T1 sequence: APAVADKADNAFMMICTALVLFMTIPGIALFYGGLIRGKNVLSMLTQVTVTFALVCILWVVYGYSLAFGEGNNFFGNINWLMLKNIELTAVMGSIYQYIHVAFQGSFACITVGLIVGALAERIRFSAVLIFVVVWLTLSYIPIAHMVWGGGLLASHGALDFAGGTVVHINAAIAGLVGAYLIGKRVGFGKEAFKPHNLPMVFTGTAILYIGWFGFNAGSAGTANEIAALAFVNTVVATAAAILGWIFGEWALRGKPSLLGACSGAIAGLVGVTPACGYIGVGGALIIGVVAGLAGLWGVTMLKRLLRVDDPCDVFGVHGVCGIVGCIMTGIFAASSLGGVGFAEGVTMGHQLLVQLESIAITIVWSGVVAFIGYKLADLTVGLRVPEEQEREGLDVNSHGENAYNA

[2] = target: T1, ammonium channel (AmtB) from …; assay: native MS; AmtB-GlnK at 2 uM titrated with DPPG (16:0); 200 mM ammonium acetate pH 7.4, 0.5% C8E4, 50 uM ADP; global fit of the equilibrium-coupled AmtB-GlnK-lipid binding model; apparent constants
[3] = target: T1, ammonium channel (AmtB) from …; assay: native MS; AmtB-GlnK at 2 uM titrated with POPC; 200 mM ammonium acetate pH 7.4, 0.5% C8E4, 50 uM ADP, 298 K; global fit of the equilibrium-coupled AmtB-GlnK-lipid binding model; apparent constants
[4] = target: T1, ammonium channel (AmtB) from …; assay: native MS; AmtB-GlnK at 2 uM titrated with DOPE (trans, 18:1); 200 mM ammonium acetate pH 7.4, 0.5% C8E4, 50 uM ADP; global fit of the equilibrium-coupled AmtB-GlnK-lipid binding model; apparent constants
[5] = target: T1, ammonium channel (AmtB) from …; assay: native MS; AmtB-GlnK at 2 uM titrated with DLPG (12:0); 200 mM ammonium acetate pH 7.4, 0.5% C8E4, 50 uM ADP; global fit of the equilibrium-coupled AmtB-GlnK-lipid binding model; apparent constants
[6] = target: T1, ammonium channel (AmtB) from …; assay: native MS; AmtB-GlnK at 2 uM titrated with POPG; 200 mM ammonium acetate pH 7.4, 0.5% C8E4, 50 uM ADP, 298 K; global fit of the equilibrium-coupled AmtB-GlnK-lipid binding model; apparent constants
[7] = target: T1, ammonium channel (AmtB) from …; assay: native MS; AmtB-GlnK at 2 uM titrated with TOCDL (cardiolipin); 200 mM ammonium acetate pH 7.4, 0.5% C8E4, 50 uM ADP, 298 K; global fit of the equilibrium-coupled AmtB-GlnK-lipid binding model; apparent constants
[8] = target: T1, ammonium channel (AmtB) from …; assay: native MS; AmtB-GlnK at 2 uM titrated with POPS; 200 mM ammonium acetate pH 7.4, 0.5% C8E4, 50 uM ADP, 298 K; global fit of the equilibrium-coupled AmtB-GlnK-lipid binding model; apparent constants
[9] = target: T1, ammonium channel (AmtB) from …; assay: native MS; AmtB-GlnK at 2 uM titrated with POPE; 200 mM ammonium acetate pH 7.4, 0.5% C8E4, 50 uM ADP, 298 K; global fit of the equilibrium-coupled AmtB-GlnK-lipid binding model; apparent constants
[10] = target: T1, ammonium channel (AmtB) from …; assay: native MS; AmtB-GlnK at 2 uM titrated with POPA; 200 mM ammonium acetate pH 7.4, 0.5% C8E4, 50 uM ADP, 298 K; global fit of the equilibrium-coupled AmtB-GlnK-lipid binding model; apparent constants
[11] = target: T1, ammonium channel (AmtB) from …; assay: native MS; AmtB-GlnK at 2 uM titrated with DMPG (14:0); 200 mM ammonium acetate pH 7.4, 0.5% C8E4, 50 uM ADP; global fit of the equilibrium-coupled AmtB-GlnK-lipid binding model; apparent constants
[12] = target: T1, ammonium channel (AmtB) from …; assay: native MS; AmtB-GlnK at 2 uM titrated with DOPE (cis, 18:1); 200 mM ammonium acetate pH 7.4, 0.5% C8E4, 50 uM ADP; global fit of the equilibrium-coupled AmtB-GlnK-lipid binding model; apparent constants
[13] = target: T2, ammonium channel (AmtB) from Escherichia coli, wild-type, tagless (E. coli, UniProt P69681 23-428); assay: native MS; ADP titration series; at and above 100 uM ADP (asymptote); AmtB-GlnK 2 uM, 200 mM ammonium acetate pH 7.4, 0.5% C8E4
T2 construct: AmtB, ammonium channel, Escherichia coli, wild-type; expressed behind a pelB secretion signal, 10x His-tag, MBP and a TEV site, all removed; also called ammonia channel; source: E. coli C41(DE3), extracted from membranes with octyl glucoside, purified (HisTrap, TEV cleavage, reverse HisTrap); not shown: 10x His-tag, N-terminal, cleaved
T2 sequence: T1 sequence

- Kd [1]: 528 nM
- Kd [2]: 521 nM
- Kd [3]: 486 nM
- Kd [4]: 556 nM
- Kd [5]: 522 nM
- Kd [6]: 540 nM
- Kd [7]: 517 nM
- Kd [8]: 500 nM
- Kd [9]: 504 nM
- Kd [10]: 517 nM
- Kd [11]: 551 nM
- Kd [12]: 517 nM
B1: Strep-tag II-tagged GlnK (stGlnK), Y51F (natural protein, Escherichia coli)
chain: MKLVTVIIKPFKLEDVREALSSIGIQGLTVTEVKGFGRQKGHAELYRGAEFSVNFLPKVKIDVAIADDQLDEVIDIVSKAAYTGKIGDGKIFVAELQRVIRIRTGEADEAAL
notes: Nitrogen regulatory protein GlnK, Escherichia coli; Expressed from pET28b; Y51F prevents uridylylation by GlnD; source: E. coli ArcticExpress (DE3) RIL, purified (StrepTrap HP, Superdex 75)

- Kd [13]: ~80 nM
B2: Strep-tag II-tagged GlnK (stGlnK), Y51F (natural protein, E. coli)
chain: B1 chain
notes: GlnK, nitrogen regulatory protein (PII-2), Escherichia coli, with the point mutation Y51F that prevents uridylylation by GlnD; source: E. coli ArcticExpress (DE3) RIL, purified (StrepTrap, Superdex 75)
